Assay [1] concerns the target T1, His6-MBP-Ctc1 (human, UniProt Q2NKJ3 1-1217).
T1 sequence: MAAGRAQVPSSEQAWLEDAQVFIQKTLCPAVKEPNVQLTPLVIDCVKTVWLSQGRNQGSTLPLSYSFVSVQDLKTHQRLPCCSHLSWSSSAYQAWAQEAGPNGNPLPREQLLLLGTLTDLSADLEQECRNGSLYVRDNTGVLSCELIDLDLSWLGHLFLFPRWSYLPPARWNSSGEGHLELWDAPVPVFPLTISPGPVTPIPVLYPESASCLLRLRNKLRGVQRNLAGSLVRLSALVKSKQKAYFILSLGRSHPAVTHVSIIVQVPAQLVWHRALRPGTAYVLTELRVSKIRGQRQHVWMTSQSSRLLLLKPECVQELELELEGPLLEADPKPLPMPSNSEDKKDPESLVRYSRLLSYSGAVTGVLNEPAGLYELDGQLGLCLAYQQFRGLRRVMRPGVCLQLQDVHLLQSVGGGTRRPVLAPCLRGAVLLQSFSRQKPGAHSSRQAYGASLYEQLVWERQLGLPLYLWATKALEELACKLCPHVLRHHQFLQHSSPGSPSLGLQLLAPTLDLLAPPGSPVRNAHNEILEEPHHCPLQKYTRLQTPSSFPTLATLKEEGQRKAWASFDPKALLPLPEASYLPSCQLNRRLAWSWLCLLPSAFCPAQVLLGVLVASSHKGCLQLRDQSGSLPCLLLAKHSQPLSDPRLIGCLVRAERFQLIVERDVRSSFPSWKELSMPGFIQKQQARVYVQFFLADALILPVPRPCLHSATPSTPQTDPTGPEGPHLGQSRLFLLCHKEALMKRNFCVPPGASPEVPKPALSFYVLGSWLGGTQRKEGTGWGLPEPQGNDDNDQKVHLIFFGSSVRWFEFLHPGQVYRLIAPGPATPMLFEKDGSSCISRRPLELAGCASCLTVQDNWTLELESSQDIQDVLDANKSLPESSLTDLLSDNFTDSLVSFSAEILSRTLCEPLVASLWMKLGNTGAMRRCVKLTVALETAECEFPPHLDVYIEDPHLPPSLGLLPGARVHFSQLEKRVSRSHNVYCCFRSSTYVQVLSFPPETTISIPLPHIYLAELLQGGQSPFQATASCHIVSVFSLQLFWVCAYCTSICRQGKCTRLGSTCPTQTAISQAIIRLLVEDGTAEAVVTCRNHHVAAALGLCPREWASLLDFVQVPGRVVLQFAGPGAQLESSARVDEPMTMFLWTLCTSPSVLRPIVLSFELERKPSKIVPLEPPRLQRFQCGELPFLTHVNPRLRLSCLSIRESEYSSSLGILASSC
The assay is described as follows: cryo-EM structure.

Assay [2] addresses T2, His6-MBP-Ctc1/Stn1/Ten1 (human, UniProt Q2NKJ3;Q9H668;Q86WV5). The assay is described as follows: SEC.
The target in assay [3] is T2, His6-MBP-Ctc1/Stn1/Ten1. The experiment in a line: cryo-EM structure.
Assay [4] addresses CST with the His6-MBP tag cleaved (human, UniProt Q2NKJ3;Q9H668;Q86WV5). The experiment in a line: negative-stain EM.
Assay [5] concerns the target T1, His6-MBP-Ctc1. The assay is described as follows: cryo-EM structure. The source holds these as a separate data set.
The target in assay [6] is T3, TwinStrep-GFP-TPP1 OB+RD (aa 1–251) (human, UniProt Q96AP0 1-251).
T3 sequence: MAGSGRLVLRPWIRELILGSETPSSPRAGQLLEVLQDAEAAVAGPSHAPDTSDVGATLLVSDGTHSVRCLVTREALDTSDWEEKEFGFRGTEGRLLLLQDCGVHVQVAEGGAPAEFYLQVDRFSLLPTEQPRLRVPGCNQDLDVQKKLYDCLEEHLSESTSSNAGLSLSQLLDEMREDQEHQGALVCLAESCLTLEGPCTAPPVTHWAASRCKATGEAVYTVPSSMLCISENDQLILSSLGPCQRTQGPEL
The experiment in a line: cryo-EM structure.

Like-named read-outs stand apart in the source and are kept apart here.

T2 sequence (Q86WV5 whole entry, one chain of several): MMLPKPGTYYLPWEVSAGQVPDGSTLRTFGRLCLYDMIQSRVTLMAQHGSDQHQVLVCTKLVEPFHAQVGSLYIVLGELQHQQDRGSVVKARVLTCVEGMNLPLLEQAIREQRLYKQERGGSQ
Sequence of CST with the His6-MBP tag cleaved (Q86WV5 whole entry, one chain of several): as above

B1: Stn1 (natural protein)
chain: MQPGSSRCEEETPSLLWGLDPVFLAFAKLYIRDILDMKESRQVPGVFLYNGHPIKQVDVLGTVIGVRERDAFYSYGVDDSTGVINCICWKKLNTESVSAAPSAARELSLTSQLKKLQETIEQKTKIEIGDTIRVRGSIRTYREEREIHATTYYKVDDPVWNIQIARMLELPTIYRKVYDQPFHSSALEKEEALSNPGALDLPSLTSLLSEKAKEFLMENRVQSFYQQELEMVESLLSLANQPVIHSASSDQVNFKKDTTSKAIHSIFKNAIQLLQEKGLVFQKDDGFDNLYYVTREDKDLHRKIHRIIQQDCQKPNHMEKGCHFLHILACARLSIRPGLSEAVLQQVLELLEDQSDIVSTMEHYYTAF
For B1, the binding result with His6-MBP-Ctc1 [1] is on record as “binds”.

B2: POT1(SED)/GFP-TPP1 (complex)
chain 1: MSLVPATNYIYTPLNQLKGGTIVNVYGVVKFFKPPYLSKGTDYCSVVTIVDQTNVKLTCLLFSGNYEALPIIYKNGDIVRFHRLKIQVYKKETQGITSSGFASLTFEGTLGAPIIPRTSSKYFNFTTEDHKMVEALRVWASTHMSPSWTLLKLCDVQPMQYFDLTCQLLGKAEVDGASFLLKVWDGTRTPFPSWRVLIQDLVLEGDLSHIHRLQNLTIDILVYDNHVHVARSLKVGSFLRIYSLHTKLQSMNSENQTMLSLEFHLHGGTSYGRGIRVLPESNSDVDQLKKDLESANLTANQHSDVICQSEPDDSSPESDSVSLYEVERCQQLSATILTDHQYLERTPLCAILKQKAPQQYRIRAKLRSYKPRRLFQSVKLHCPKCHLLQEVPHEGDLDIIFQDGATKTPDVKLQNTSLYDSKIWTTKNQKGRKVAVHFVKNNGILPLSNECLLLIEGGTLSEICKLSNKFNSVIPVRSGHEDLELLDLSAPFLIQGTIHHYGCKQCSSLRSIQNLNSLVDKTSWIPSSVAEALGIVPLQYVFVMTFTLDDGTGVLEAYLMDSDKFFQIPASEVLMDDDLQKSVDMIMDMFCPPGIKIDAYPWLECFIKSYNVTNGTDNQICYQIFDTTVAEDVI
chain 2: MAGSGRLVLRPWIRELILGSETPSSPRAGQLLEVLQDAEAAVAGPSHAPDTSDVGATLLVSDGTHSVRCLVTREALDTSDWEEKEFGFRGTEGRLLLLQDCGVHVQVAEGGAPAEFYLQVDRFSLLPTEQPRLRVPGCNQDLDVQKKLYDCLEEHLSESTSSNAGLSLSQLLDEMREDQEHQGALVCLAESCLTLEGPCTAPPVTHWAASRCKATGEAVYTVPSSMLCISENDQLILSSLGPCQRTQGPEL
Regarding B2, the binding result with His6-MBP-Ctc1/Stn1/Ten1 [2] is “binds”.

B3: His6-POT1(ESDL)/TwinStrep-GFP-TPP1 (complex)
chain 1: MSLVPATNYIYTPLNQLKGGTIVNVYGVVKFFKPPYLSKGTDYCSVVTIVDQTNVKLTCLLFSGNYEALPIIYKNGDIVRFHRLKIQVYKKETQGITSSGFASLTFEGTLGAPIIPRTSSKYFNFTTEDHKMVEALRVWASTHMSPSWTLLKLCDVQPMQYFDLTCQLLGKAEVDGASFLLKVWDGTRTPFPSWRVLIQDLVLEGDLSHIHRLQNLTIDILVYDNHVHVARSLKVGSFLRIYSLHTKLQSMNSENQTMLSLEFHLHGGTSYGRGIRVLPESNSDVDQLKKDLESANLTANQHSDVICQSEPDDSFPSSGSESDLVSLYEVERCQQLSATILTDHQYLERTPLCAILKQKAPQQYRIRAKLRSYKPRRLFQSVKLHCPKCHLLQEVPHEGDLDIIFQDGATKTPDVKLQNTSLYDSKIWTTKNQKGRKVAVHFVKNNGILPLSNECLLLIEGGTLSEICKLSNKFNSVIPVRSGHEDLELLDLSAPFLIQGTIHHYGCKQCSSLRSIQNLNSLVDKTSWIPSSVAEALGIVPLQYVFVMTFTLDDGTGVLEAYLMDSDKFFQIPASEVLMDDDLQKSVDMIMDMFCPPGIKIDAYPWLECFIKSYNVTNGTDNQICYQIFDTTVAEDVI
chain 2: MAGSGRLVLRPWIRELILGSETPSSPRAGQLLEVLQDAEAAVAGPSHAPDTSDVGATLLVSDGTHSVRCLVTREALDTSDWEEKEFGFRGTEGRLLLLQDCGVHVQVAEGGAPAEFYLQVDRFSLLPTEQPRLRVPGCNQDLDVQKKLYDCLEEHLSESTSSNAGLSLSQLLDEMREDQEHQGALVCLAESCLTLEGPCTAPPVTHWAASRCKATGEAVYTVPSSMLCISENDQLILSSLGPCQRTQGPEL
modifications: phosphorylated in insect cells (sites not identified)
On to B3, for which the binding result (with His6-MBP-Ctc1/Stn1/Ten1 [3]; in assay [4]) was “binds” in each case.

B4: POT1(SED)/GFP-TPP1 treated with λ protein phosphatase (complex)
chain 1: MSLVPATNYIYTPLNQLKGGTIVNVYGVVKFFKPPYLSKGTDYCSVVTIVDQTNVKLTCLLFSGNYEALPIIYKNGDIVRFHRLKIQVYKKETQGITSSGFASLTFEGTLGAPIIPRTSSKYFNFTTEDHKMVEALRVWASTHMSPSWTLLKLCDVQPMQYFDLTCQLLGKAEVDGASFLLKVWDGTRTPFPSWRVLIQDLVLEGDLSHIHRLQNLTIDILVYDNHVHVARSLKVGSFLRIYSLHTKLQSMNSENQTMLSLEFHLHGGTSYGRGIRVLPESNSDVDQLKKDLESANLTANQHSDVICQSEPDDSSPESDSVSLYEVERCQQLSATILTDHQYLERTPLCAILKQKAPQQYRIRAKLRSYKPRRLFQSVKLHCPKCHLLQEVPHEGDLDIIFQDGATKTPDVKLQNTSLYDSKIWTTKNQKGRKVAVHFVKNNGILPLSNECLLLIEGGTLSEICKLSNKFNSVIPVRSGHEDLELLDLSAPFLIQGTIHHYGCKQCSSLRSIQNLNSLVDKTSWIPSSVAEALGIVPLQYVFVMTFTLDDGTGVLEAYLMDSDKFFQIPASEVLMDDDLQKSVDMIMDMFCPPGIKIDAYPWLECFIKSYNVTNGTDNQICYQIFDTTVAEDVI
chain 2: MAGSGRLVLRPWIRELILGSETPSSPRAGQLLEVLQDAEAAVAGPSHAPDTSDVGATLLVSDGTHSVRCLVTREALDTSDWEEKEFGFRGTEGRLLLLQDCGVHVQVAEGGAPAEFYLQVDRFSLLPTEQPRLRVPGCNQDLDVQKKLYDCLEEHLSESTSSNAGLSLSQLLDEMREDQEHQGALVCLAESCLTLEGPCTAPPVTHWAASRCKATGEAVYTVPSSMLCISENDQLILSSLGPCQRTQGPEL
modifications: dephosphorylated with λ protein phosphatase | dephosphorylated with λ protein phosphatase
Consider B4, for which the binding result with His6-MBP-Ctc1/Stn1/Ten1 [2] was “binds”.

B5: POT1(ESDL) (natural protein)
chain: MSLVPATNYIYTPLNQLKGGTIVNVYGVVKFFKPPYLSKGTDYCSVVTIVDQTNVKLTCLLFSGNYEALPIIYKNGDIVRFHRLKIQVYKKETQGITSSGFASLTFEGTLGAPIIPRTSSKYFNFTTEDHKMVEALRVWASTHMSPSWTLLKLCDVQPMQYFDLTCQLLGKAEVDGASFLLKVWDGTRTPFPSWRVLIQDLVLEGDLSHIHRLQNLTIDILVYDNHVHVARSLKVGSFLRIYSLHTKLQSMNSENQTMLSLEFHLHGGTSYGRGIRVLPESNSDVDQLKKDLESANLTANQHSDVICQSEPDDSFPSSGSESDLVSLYEVERCQQLSATILTDHQYLERTPLCAILKQKAPQQYRIRAKLRSYKPRRLFQSVKLHCPKCHLLQEVPHEGDLDIIFQDGATKTPDVKLQNTSLYDSKIWTTKNQKGRKVAVHFVKNNGILPLSNECLLLIEGGTLSEICKLSNKFNSVIPVRSGHEDLELLDLSAPFLIQGTIHHYGCKQCSSLRSIQNLNSLVDKTSWIPSSVAEALGIVPLQYVFVMTFTLDDGTGVLEAYLMDSDKFFQIPASEVLMDDDLQKSVDMIMDMFCPPGIKIDAYPWLECFIKSYNVTNGTDNQICYQIFDTTVAEDVI
modifications: phosphorylated in insect cells (sites not identified)
With B5, the binding result (with His6-MBP-Ctc1 [5]; in assay [6]) was “binds” each time.
